B1: LPKLPVPPL (SEQ ID NO: 77) (peptide)
peptide: LPKLPVPPL
B2: NVKIRFLE (SEQ ID NO: 99) (peptide)
peptide: NVKIRFLE
B3: FVRPKLVTI (SEQ ID NO: 8) (peptide)
peptide: FVRPKLVTI
B4: RLKLRYEGL (SEQ ID NO: 74) (peptide)
peptide: RLKLRYEGL
B5: TLKAMVQAW (SEQ ID NO: 92) (peptide)
peptide: TLKAMVQAW
B6: FVLLRSVDL (SEQ ID NO: 83) (peptide)
peptide: FVLLRSVDL
B7: SRNPRGFFL (SEQ ID NO: 95) (peptide)
peptide: SRNPRGFFL
B8: EVYLRMYQL (SEQ ID NO: 80) (peptide)
peptide: EVYLRMYQL
B9: LLKGKPRAL (SEQ ID NO: 9) (peptide)
peptide: LLKGKPRAL
B10: GLARIYSF (SEQ ID NO: 79) (peptide)
peptide: GLARIYSF
B11: RPIHHPLVL (SEQ ID NO: 86) (peptide)
peptide: RPIHHPLVL
B12: MYRKEQYL (SEQ ID NO: 81) (peptide)
peptide: MYRKEQYL
B13: SIRKRPML (SEQ ID NO: 82) (peptide)
peptide: SIRKRPML
B14: HPRLKVNLL (SEQ ID NO: 76) (peptide)
peptide: HPRLKVNLL
B15: YITRQFVQF (SEQ ID NO: 84) (peptide)
peptide: YITRQFVQF
B16: QKPRKKKL (SEQ ID NO: 85) (peptide)
peptide: QKPRKKKL
B17: VLLMGPLHL (SEQ ID NO: 100) (peptide)
peptide: VLLMGPLHL
B18: EPVNTNVVL (SEQ ID NO: 98) (peptide)
peptide: EPVNTNVVL
B19: RPAGVFEL (SEQ ID NO: 96) (peptide)
peptide: RPAGVFEL
B20: LMKEKIQEM (SEQ ID NO: 93) (peptide)
peptide: LMKEKIQEM
B21: MPMQDIKMIL (SEQ ID NO: 91) (peptide)
peptide: MPMQDIKMIL
B22: QILQHHVL (SEQ ID NO: 87) (peptide)
peptide: QILQHHVL
B23: MLLCLSLEL (SEQ ID NO: 88) (peptide)
peptide: MLLCLSLEL
B24: TIGLGLHSL (SEQ ID NO: 90) (peptide)
peptide: TIGLGLHSL
B25: VPYTKVQL (SEQ ID NO: 89) (peptide)
peptide: VPYTKVQL
B26: DQLLRHVM (SEQ ID NO: 94) (peptide)
peptide: DQLLRHVM
B27: YARLKNVLL (SEQ ID NO: 75) (peptide)
peptide: YARLKNVLL
B28: DGHMKVFSL (SEQ ID NO: 78) (peptide)
peptide: DGHMKVFSL
B29: YVYANHFTEA (SEQ ID NO: 291) (peptide)
peptide: YVYANHFTEA
notes: also called COL6A3-039
B30: EEFLTPKKL (SEQ ID NO: 290) (peptide)
peptide: EEFLTPKKL

Target: T1, HLA-B*08:01 (human)
T1 construct: MHC monomer first loaded with a UV-sensitive peptide that is cleaved by UV light and exchanged for the test peptide
Test: UV peptide exchange ELISA
Procedure, shortened: (§1)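 Peptide–MHC complexes formed by UV-mediated exchange of a photocleavable ligand; exchange yield assessed by ELISA on streptavidin-coated plates, samples diluted 100-fold. Bound complexes detected with HRP anti-β2m and TMB at 450 nm against HLA-A*02:01 monomer standards (15–500 ng/ml).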

| peptide exchange yield [%] | Binder |
| --- | --- |
| 50 to 75 | B1 |
| 20 to 50 | B2 |
| 50 to 75 | B3 |
| 50 to 75 | B4 |
| 50 to 75 | B5 |
| 50 to 75 | B6 |
| 20 to 50 | B7 |
| 50 to 75 | B8 |
| 20 to 50 | B9 |
| 20 to 50 | B10 |
| 20 to 50 | B11 |
| 20 to 50 | B12 |
| 20 to 50 | B13 |
| 50 to 75 | B14 |
| 20 to 50 | B15 |
| 20 to 50 | B16 |
| 20 to 50 | B17 |
| 20 to 50 | B18 |
| 20 to 50 | B19 |
| 50 to 75 | B20 |
| 20 to 50 | B21 |
| 50 to 75 | B22 |
| 20 to 50 | B23 |
| 20 to 50 | B24 |
| 50 to 75 | B25 |
| 50 to 75 | B26 |
| 50 to 75 | B27 |
| 20 to 50 | B28 |

Target: T2, HLA-A*02:01 (human)
T2 construct: MHC monomer first loaded with a UV-sensitive peptide that is cleaved by UV light and exchanged for the test peptide
Test: UV peptide exchange ELISA
Procedure, shortened: as §1

| binding result | Binder |
| --- | --- |
| binds | B29 |

Target: T3, HLA-B*44:05 (human)
T3 construct: MHC monomer first loaded with a UV-sensitive peptide that is cleaved by UV light and exchanged for the test peptide
Test: UV peptide exchange ELISA
Procedure, shortened: as §1

| binding result | Binder |
| --- | --- |
| binds | B30 |

Source: patent US20250145684A1 (IMMATICS BIOTECHNOLOGIES, published 2025)
